Source: publication PMC2614558

What was measured:
[1] = molecular target: cytoplasmic (C-terminal, soluble) domain of the putative zinc transporter CzrB from Thermus thermophilus, His-tag-free (Thermus thermophilus); assay: small-angle X-ray scattering
[2] = molecular target: cytoplasmic (C-terminal, soluble) domain of the putative zinc transporter CzrB from Thermus thermophilus, His-tag-free (Thermus thermophilus); assay: small-angle X-ray scattering; remark: listed apart in the source
[3] = molecular target: cytoplasmic (C-terminal, soluble) domain of the putative zinc transporter CzrB from Thermus thermophilus, His-tag-free (Thermus thermophilus); assay: SEC

Measured: stoichiometry N

cytoplasmic (C-terminal, soluble) domain of the putative zinc transporter CzrB from Thermus thermophilus, His-tag-free (domain or fragment)
2: all assays above
